# From US7629135B2, “Toll-like receptor agonists and antagonists and methods of use thereof” (The Board of Trustees of the University of Illinois, priority 2006, dated 2009)
# What was measured:
# [1] = test system: Human peripheral blood monocytes (PBMC); assay: SAA-induced G-CSF secretion in human PBMC (ELISA); type: cell-based; details: SAA 1 μM
# Method: SAA induces G-CSF expression in monocytes and macrophages: To determine whether SAA plays a role in neutrophilia, the ability of SAA to stimulate G-CSF expression was investigated. Human peripheral blood monocytes (PBMC) were incubated with SAA, and the concentration of secreted G-CSF in the culture medium was determined at various time points after stimulation. The concentration of SAA used in this experiment (1 μM) was well within its physiological range (0.08 μM to 80 μM). […] Since subsequent studies used mice for measurement of G-CSF secretion and neutrophilia, SAA-induced G-CSF expression in mouse bone marrow derived macrophages (BMDM) was determined, of which 98% were F4/80^+ CD14^+ based on flow cytometry analysis. […] The basal level of G-CSF remained stable at approximately 42 pg/ml/10^6 cells over the entire course of incubation.
# Cell preparation and culture: Human peripheral blood monocytes were prepared from fresh, heparinized venous blood by Ficoll-Hypaque density-gradient centrifugation. […]
# Measurement of G-CSF expression: To measure the secreted G-CSF from human monocytes and mouse macrophages in vitro, cells were placed in serum-free DMEM medium and stimulated with the indicated ligands. […] Real-time quantitative PCR was performed on a ABI PRISM 7000 Sequence Detection System (Applied Biosystems) as described previously (He et al., 2006). […]
# [2] = test system: RelA/p65 binding to the CK-1 site of the G-CSF promoter; assay: Chromatin immunoprecipitation (ChIP) assay in RAW264.7 cells; type: cell-based, mouse; details: SAA 1 μM or TNFα 50 ng/ml
# Method: To investigate the mechanism for SAA-induced G-CSF production, the level of G-CSF transcript in SAA-stimulated BMDM was determined. […] The induction of G-CSF transcript peaked at 4 h after SAA stimulation. Since transcription of the G-CSF gene involves NF-κB binding to the RelA/p65 consensus element in the CK-1 site of the G-CSF promoter (Dunn et al., 1994; Hareng and Hartung, 2002), the role of NF-κB in SAA-stimulated G-CSF expression was determined. […] Using oligonucleotide probe based on the sequence of the CK-1 site (−161 to −152 in the G-CSF promoter), a protein •DNA complex (FIG. 2C) was identified. […] Inclusion of a RelA/p65 antibody blocking peptide in the assay abrogated the immunoprecipitation (FIG. 2D).
# ChIP assay: Reagents were obtained from Upstate Biotechnology, and ChIP assay was performed as per manufacturers specifications with minor modifications. Briefly, a total of 1×10^7 RAW264.7 cells were harvested and resuspended in a serum-free DMEM medium absence or presence of 1 μM SAA, or 50 ng/ml of TNFα, and incubated for 30 or 60 min at 37° C. Following stimulation, cells were crosslinked and then washed and resuspended in SDS-lysis buffer, and were sonicated (4 times for 10 s each, with a setting at ‘4’ on a Fisher Sonic 60 dismembrenator). […] The PCR products were analyzed on a 2.5% agarose gel.
# [3] = test system: mouse macrophage cell line RAW264.7; assay: G-CSF secretion in RAW264.7 cells (ELISA); type: cell-based; details: SAA 1 μM, time course
molecule,measurement,setting,value
"SAA: Recombinant human SAA purchased from PeproTech; major acute-phase protein of 104 amino acids (protein, UniProt P0DJI8 19-122, looked up) Serum amyloid A-1 protein: RSFFSFLGEAFDGARDMWRAYSDMREANYIGSDKYFHARGNYDAAKRGPGGAWAAEVITDARENIQRFFGHGAEDSLADQAANEWGRSGKDPNHFRPAGLPEKY",secreted G-CSF,[1]; after 4 h of stimulation,"2,546 pg/ml/10^6 cells"
same,secreted G-CSF,[1]; end of 24 h incubation,"7,340 pg/ml/10^6 cells"
same,pull-down of CK-1 DNA fragment by anti-RelA/p65 antibody,[2],able to pull-down the CK-1 DNA fragment
same,G-CSF production,[3],time-dependent production of G-CSF
